We go through one substance from paper PMC6508782.

The target of this experiment is Hcf106 G6CV14C (Pisum sativum). Briefly: cross-linking; disulfide cross-linking with 1 mM CuP for 5 min of [3H]Hcf106 Cys variants integrated into NEM-pretreated thylakoid; non-reducing SDS-PAGE, fluorography.

Take Hcf106 G6CV14C (natural protein): the stoichiometry N is below 8.
